From paper PMC5624674

Molecular target: T1, λCI-CbtA fusion protein (wild-type CbtA toxin of E. coli) (E. coli), P64524
T1 chain: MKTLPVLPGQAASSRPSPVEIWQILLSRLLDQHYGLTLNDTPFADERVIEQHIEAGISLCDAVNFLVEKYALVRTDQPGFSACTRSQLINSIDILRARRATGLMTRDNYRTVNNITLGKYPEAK
Experiment: two-hybrid
Details: remark: other sources report otherwise

B1: α-MreB fusion protein (wild-type E. coli MreB), P0A9X4 1-347 (natural protein)
chain: MLKKFRGMFSNDLSIDLGTANTLIYVKGQGIVLNEPSVVAIRQDRAGSPKSVAAVGHDAKQMLGRTPGNIAAIRPMKDGVIADFFVTEKMLQHFIKQVHSNSFMRPSPRVLVCVPVGATQVERRAIRESAQGAGAREVFLIEEPMAAAIGAGLPVSEATGSMVVDIGGGTTEVAVISLNGVVYSSSVRIGGDRFDEAIINYVRRNYGSLIGEATAERIKHEIGSAYPGDEVREIEVRGRNLAEGVPRGFTLNSNEILEALQEPLTGIVSAVMVALEQCPPELASDISERGMVLTGGGALLRNLDRLLMEETGIPVVVAEDPLTCVARGGGKALEMIDMHGGDLFSEE
fold increase in lacZ expression: 3 fold
